We go through 125 sequences from the supplement of paper PMC9112550, “Optimization of the antimicrobial peptide Bac7 by deep mutational scanning” (BMC Biology, 2022).
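Note: peptides expressed intracellularly from a pBAD plasmid library in pooled LB shake-flask culture, induced with 0.3% L-arabinose, DNA abundance read by NGS, three biological replicates, DESeq2 with apeglm shrinkage.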

This series relates to Escherichia coli TOP10. In words: shrunken log2 fold change of peptide-encoding DNA abundance (4.5 h post-induction vs induction); higher = less antimicrobial activity (less host growth inhibition). Particulars: time post-induction: 4.5 h; library: site-saturation at positions 5, 18, 19, 20.
On to RRIRARPPRLPRPRPRPSIYPRP, for which the “shrunken log2 fold change” value was -0.404. With RRIRNRPPRLPRPRPRPWCFPRP, the “shrunken log2 fold change” value is -0.472.

On to RRIRPRPPRLPRPRPRPRMSPRP, for which the “shrunken log2 fold change” value came to 0.232. In the case of RRIRHRPPRLPRPRPRPRPDPRP, the “shrunken log2 fold change” value came out at 0.179. For the sequence RRIRNRPPRLPRPRPRPLGIPRP, the “shrunken log2 fold change” value was -0.169. As to RRIRIRPPRLPRPRPRPWFKPRP, the “shrunken log2 fold change” value is -1.74. The figure for RRIRRRPPRLPRPRPRPHPKPRP is 0.474. On to RRIRIRPPRLPRPRPRPQCFPRP, for which the “shrunken log2 fold change” value was determined as 0.0204. Turning to RRIRARPPRLPRPRPRPFATPRP, the “shrunken log2 fold change” value was found to be 0.66.

Consider RRIRERPPRLPRPRPRPINGPRP, for which the “shrunken log2 fold change” value was determined as 0.0683.

Regarding RRIRYRPPRLPRPRPRPAAQPRP, the “shrunken log2 fold change” value amounted to 0.466. As for RRIRARPPRLPRPRPRPSNCPRP, the “shrunken log2 fold change” value was -0.285. For RRIRFRPPRLPRPRPRPSEQPRP, the “shrunken log2 fold change” value was -0.217. With RRIRGRPPRLPRPRPRPLMLPRP the figure was 0.462; with RRIRHRPPRLPRPRPRPFMMPRP, -0.272. With RRIRARPPRLPRPRPRPARSPRP, the “shrunken log2 fold change” value is 0.31.

As to RRIRKRPPRLPRPRPRPIKYPRP, the “shrunken log2 fold change” value amounted to 0.0425. For RRIRNRPPRLPRPRPRPIYVPRP, the “shrunken log2 fold change” value is -0.892. The figure for RRIRRRPPRLPRPRPRPFLAPRP is 0.925; for RRIRCRPPRLPRPRPRPMYFPRP it is -0.796.

With RRIRVRPPRLPRPRPRPRKRPRP, the “shrunken log2 fold change” value came to 0.572.

In the case of RRIRARPPRLPRPRPRPDGLPRP, the “shrunken log2 fold change” value came out at 0.292. Take RRIRSRPPRLPRPRPRPVYSPRP: the “shrunken log2 fold change” value is -0.0582. With RRIRLRPPRLPRPRPRPYRRPRP, the “shrunken log2 fold change” value was 0.0203. Regarding RRIRDRPPRLPRPRPRPDGDPRP, the “shrunken log2 fold change” value was -0.0107. Take RRIRARPPRLPRPRPRPWEQPRP: the “shrunken log2 fold change” value was 0.248.

On to RRIRCRPPRLPRPRPRPFRPPRP, for which the “shrunken log2 fold change” value was -0.515.

As to RRIRYRPPRLPRPRPRPSVAPRP, the “shrunken log2 fold change” value was -0.183. RRIRERPPRLPRPRPRPFSCPRP: the “shrunken log2 fold change” value is 0.0263. With RRIRWRPPRLPRPRPRPKQGPRP the figure was 0.125; with RRIRMRPPRLPRPRPRPCVQPRP, -0.0115; with RRIRERPPRLPRPRPRPQRMPRP, -0.411. On to RRIRRRPPRLPRPRPRPAMQPRP, for which the “shrunken log2 fold change” value came out at 0.423. For the sequence RRIRDRPPRLPRPRPRPHFLPRP, the “shrunken log2 fold change” value stood at 0.0122. As to RRIRGRPPRLPRPRPRPVAEPRP, the “shrunken log2 fold change” value was found to be 1.38. Consider RRIRPRPPRLPRPRPRPWMLPRP, for which the “shrunken log2 fold change” value is -0.168. Consider RRIRTRPPRLPRPRPRPIEHPRP, for which the “shrunken log2 fold change” value is 0.0859.

On to RRIRIRPPRLPRPRPRPRYLPRP, for which the “shrunken log2 fold change” value stood at 0.0743. Regarding RRIRARPPRLPRPRPRPNNPPRP, the “shrunken log2 fold change” value is 0.0346. For the sequence RRIRKRPPRLPRPRPRPGLWPRP, the “shrunken log2 fold change” value is 0.66.

For the sequence RRIRGRPPRLPRPRPRPRAPPRP, the “shrunken log2 fold change” value was determined as 1.05.

For the sequence RRIRMRPPRLPRPRPRPSYNPRP, the “shrunken log2 fold change” value is -0.808. For RRIRIRPPRLPRPRPRPFNDPRP, the “shrunken log2 fold change” value is -0.0749. For the sequence RRIRYRPPRLPRPRPRPYPGPRP, the “shrunken log2 fold change” value was -0.379.

On to RRIRSRPPRLPRPRPRPFYPPRP, for which the “shrunken log2 fold change” value was -0.259. The figure for RRIRDRPPRLPRPRPRPHMGPRP is -0.174. The figure for RRIRNRPPRLPRPRPRPCMEPRP is -0.206; for RRIRVRPPRLPRPRPRPDSGPRP it is -0.0439.

With RRIRYRPPRLPRPRPRPCYMPRP, the “shrunken log2 fold change” value is 0.0232. Regarding RRIRTRPPRLPRPRPRPMRAPRP, the “shrunken log2 fold change” value came to 1. Regarding RRIRNRPPRLPRPRPRPTSHPRP, the “shrunken log2 fold change” value is -0.0916.

In the case of RRIRRRPPRLPRPRPRPALVPRP, the “shrunken log2 fold change” value is 0.74.

Consider RRIRTRPPRLPRPRPRPAYRPRP, for which the “shrunken log2 fold change” value is -0.111. In the case of RRIRMRPPRLPRPRPRPEFKPRP, the “shrunken log2 fold change” value stood at 0.335.

Take RRIRERPPRLPRPRPRPLICPRP: the “shrunken log2 fold change” value was -0.74.

With RRIRDRPPRLPRPRPRPSWNPRP, the “shrunken log2 fold change” value was -0.365. With RRIRNRPPRLPRPRPRPANKPRP, the “shrunken log2 fold change” value came out at 0.0716.

For the sequence RRIRWRPPRLPRPRPRPERNPRP, the “shrunken log2 fold change” value was -0.117. Consider RRIRTRPPRLPRPRPRPVLRPRP, for which the “shrunken log2 fold change” value worked out at 0.11. The figure for RRIRQRPPRLPRPRPRPRCAPRP is 0.385. Turning to RRIRVRPPRLPRPRPRPINYPRP, the “shrunken log2 fold change” value was -0.348.

On to RRIRSRPPRLPRPRPRPNWWPRP, for which the “shrunken log2 fold change” value was determined as 0.022. Take RRIRPRPPRLPRPRPRPESCPRP: the “shrunken log2 fold change” value was determined as 0.239.

With RRIRFRPPRLPRPRPRPDHKPRP, the “shrunken log2 fold change” value is -0.406. For RRIRYRPPRLPRPRPRPQEWPRP, the “shrunken log2 fold change” value is -0.000687. The figure for RRIRRRPPRLPRPRPRPMIRPRP is 0.272; for RRIRKRPPRLPRPRPRPPQEPRP it is 0.0788; for RRIRMRPPRLPRPRPRPRVDPRP it is 0.95. In the case of RRIRPRPPRLPRPRPRPVIWPRP, the “shrunken log2 fold change” value is -0.0495. With RRIRDRPPRLPRPRPRPDQLPRP the figure was 0.0963; with RRIRTRPPRLPRPRPRPYTEPRP, -0.267; with RRIRPRPPRLPRPRPRPSGCPRP, 0.142. The figure for RRIRARPPRLPRPRPRPRGCPRP is 0.822.

On to RRIRNRPPRLPRPRPRPITSPRP, for which the “shrunken log2 fold change” value was -0.282.

As for RRIRWRPPRLPRPRPRPQMDPRP, the “shrunken log2 fold change” value is -0.12.

For RRIRARPPRLPRPRPRPYTVPRP, the “shrunken log2 fold change” value is -0.306. The figure for RRIRNRPPRLPRPRPRPPTRPRP is 0.29; for RRIRQRPPRLPRPRPRPSYYPRP it is -0.356. On to RRIRDRPPRLPRPRPRPDISPRP, for which the “shrunken log2 fold change” value stood at 0.0588. For RRIRFRPPRLPRPRPRPFFDPRP, the “shrunken log2 fold change” value was -0.065. Turning to RRIRARPPRLPRPRPRPPIGPRP, the “shrunken log2 fold change” value came out at 0.287. In the case of RRIRKRPPRLPRPRPRPPCNPRP, the “shrunken log2 fold change” value came to 0.189. RRIRKRPPRLPRPRPRPTKYPRP: the “shrunken log2 fold change” value was -0.106. Take RRIRHRPPRLPRPRPRPQAEPRP: the “shrunken log2 fold change” value is -0.0254.

Regarding RRIRMRPPRLPRPRPRPYAQPRP, the “shrunken log2 fold change” value was -0.291. RRIRGRPPRLPRPRPRPGPGPRP: the “shrunken log2 fold change” value was determined as 1.65.

Consider RRIRPRPPRLPRPRPRPEKVPRP, for which the “shrunken log2 fold change” value was -0.127. Take RRIRMRPPRLPRPRPRPGSWPRP: the “shrunken log2 fold change” value is 0.858. As to RRIRIRPPRLPRPRPRPWTVPRP, the “shrunken log2 fold change” value was -0.15. Consider RRIRARPPRLPRPRPRPGCTPRP, for which the “shrunken log2 fold change” value amounted to 0.552. RRIRKRPPRLPRPRPRPNRWPRP: the “shrunken log2 fold change” value amounted to 0.398. Regarding RRIRGRPPRLPRPRPRPTFKPRP, the “shrunken log2 fold change” value turned out to be 0.538. Turning to RRIRLRPPRLPRPRPRPGAQPRP, the “shrunken log2 fold change” value is 0.0336. Consider RRIRGRPPRLPRPRPRPCASPRP, for which the “shrunken log2 fold change” value is 0.557. Consider RRIRLRPPRLPRPRPRPCINPRP, for which the “shrunken log2 fold change” value was -0.209. On to RRIRLRPPRLPRPRPRPIESPRP, for which the “shrunken log2 fold change” value came to 0.033. With RRIRKRPPRLPRPRPRPCLWPRP the figure was 0.0613; with RRIRWRPPRLPRPRPRPDKFPRP, -0.427; with RRIRDRPPRLPRPRPRPRFAPRP, 0.327. Consider RRIRKRPPRLPRPRPRPWSNPRP, for which the “shrunken log2 fold change” value worked out at 0.202.

RRIRVRPPRLPRPRPRPYLHPRP: the “shrunken log2 fold change” value was -0.879. On to RRIRFRPPRLPRPRPRPMLYPRP, for which the “shrunken log2 fold change” value is -0.567. As for RRIRPRPPRLPRPRPRPVQDPRP, the “shrunken log2 fold change” value was -0.0784. Consider RRIRSRPPRLPRPRPRPADWPRP, for which the “shrunken log2 fold change” value was found to be 0.405. As for RRIRRRPPRLPRPRPRPSIGPRP, the “shrunken log2 fold change” value is -0.0466. For the sequence RRIRPRPPRLPRPRPRPWSPPRP, the “shrunken log2 fold change” value came to 0.121. The figure for RRIRLRPPRLPRPRPRPHQWPRP is -0.0297. On to RRIRYRPPRLPRPRPRPAHFPRP, for which the “shrunken log2 fold change” value amounted to 0.0784.

On to RRIRARPPRLPRPRPRPYRGPRP, for which the “shrunken log2 fold change” value was -0.213. Regarding RRIRIRPPRLPRPRPRPSTCPRP, the “shrunken log2 fold change” value is -0.548.

On to RRIRVRPPRLPRPRPRPAFVPRP, for which the “shrunken log2 fold change” value is 0.00544. As for RRIRFRPPRLPRPRPRPKSKPRP, the “shrunken log2 fold change” value is -0.0737. RRIRTRPPRLPRPRPRPQMYPRP: the “shrunken log2 fold change” value is -0.148. Consider RRIRWRPPRLPRPRPRPRDGPRP, for which the “shrunken log2 fold change” value came out at 1.12. Consider RRIRRRPPRLPRPRPRPPKLPRP, for which the “shrunken log2 fold change” value was 0.0716.

On to RRIRCRPPRLPRPRPRPEAKPRP, for which the “shrunken log2 fold change” value was determined as 0.208. As to RRIRFRPPRLPRPRPRPFHNPRP, the “shrunken log2 fold change” value is -0.622.

With RRIRQRPPRLPRPRPRPPEYPRP, the “shrunken log2 fold change” value was -0.245. For the sequence RRIRERPPRLPRPRPRPYLLPRP, the “shrunken log2 fold change” value was -0.165. Take RRIRRRPPRLPRPRPRPGWHPRP: the “shrunken log2 fold change” value was 0.176. On to RRIRVRPPRLPRPRPRPPHFPRP, for which the “shrunken log2 fold change” value is 0.696. Turning to RRIRRRPPRLPRPRPRPPQGPRP, the “shrunken log2 fold change” value was 0.856. The figure for RRIRVRPPRLPRPRPRPNRIPRP is -0.0663. Turning to RRIRHRPPRLPRPRPRPKQEPRP, the “shrunken log2 fold change” value was found to be 0.0169.

As for RRIRDRPPRLPRPRPRPHKNPRP, the “shrunken log2 fold change” value was -0.296.
